Experimental findings from the supplement of paper PMC7125110 are described below.

B1: glmS ribozyme (parent)
chain: AUAAAAGCGCCAGAACUACAGAAAUGUAGUUGACGAGGAGGAGGUUUAUCGAAUUUUCGGCGGAUGCCUCCAAA

Common to all, as to conditions: with glucosamine-6-phosphate
Data set [1] covers variants of B1. The data set is described as follows: kcat; higher = faster cleavage; RNA array. Put shortly: (§1)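 Over ~14 h at 37 °C, tiles were imaged as glucosamine-6-phosphate (40 μM to 10 mM) in HEPES/KCl/Mg(OAc)2 buffer flowed across sequenced MiSeq chips. The chips carried barcoded ribozyme variants transcribed in situ by E. coli RNA polymerase and tracked with a hybridised Cy3 probe. After normalisation to baseline and to non-cleaving reference variants, one- or two-exponential decay fits of per-tile medians gave kobs. kcat and KM followed from weighted Michaelis–Menten fits across concentrations.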

In data set [2] the parent is B1. The data set can be described thus: KM; higher = weaker cofactor use; RNA array. A digest of the protocol:
as §1

In data set [3] the parent is B1. The data set is described as follows: self-cleavage kobs at 640 uM GlcN6P; higher = faster cleavage; RNA array. A digest of the protocol: as §1
The variants in data set [4] derive from B1. The data set is described as follows: self-cleavage kobs at 2500 uM GlcN6P; higher = faster cleavage; RNA array. Put shortly:
as §1

In data set [5] the parent is B1. The data set can be described thus: self-cleavage kobs at 10000 uM GlcN6P; higher = faster cleavage; RNA array. Put shortly: as §1
The variants in data set [6] derive from B1. The data set can be described thus: self-cleavage kobs at 40 uM GlcN6P; higher = faster cleavage; RNA array. Put shortly: as §1
The variants in data set [7] derive from B1. The data set can be described thus: self-cleavage kobs at 160 uM GlcN6P; higher = faster cleavage; RNA array. Put shortly:
as §1

± gives the standard error. For some assays here: Variants at the floor of the assay were thinned out.

Turning to AUAAAAGCGCUAGAACUACAGAAAUGUAGUUGACGAGGAGGAGGUUUAUCGAACUCUCGGCGGAUGCCUCCAAA [C11U U54C U56C], the catalytic constant (kcat) in data set [1] amounted to 0.000628 ± 6.2e-05 s⁻¹. In addition, the KM in data set [2] stood at 8410 ± 1200 µM. Also, the “self-cleavage kobs at 640 uM GlcN6P” value in data set [3] is 4.18e-05 ± 1.9e-05 s⁻¹. The “self-cleavage kobs at 2500 uM GlcN6P” value in data set [4] was 0.000151 ± 4.7e-05 s⁻¹. Further, in data set [5], the “self-cleavage kobs at 10000 uM GlcN6P” value was 0.000337 ± 9.5e-05 s⁻¹.
As for AUAAAAGCGCCAGAACUACAGAAAUGUAAUUGACGAGGAGGAGGUUUAUCGAAUUUUCGGCGGAUGCAUCCAAA [G29A C68A], the kcat in data set [1] was found to be 1.61e-05 ± 4.9e-06 s⁻¹. Further, the “self-cleavage kobs at 40 uM GlcN6P” value in data set [6] was under 1e-05 s⁻¹.
Turning to AUAAAAGCGCCAGAACUACAGAAAUGUAGUUGACGAGGAGGAGGUUUAACGAAUUUUCUGCGGAUGCCUCCAAA [U49A G59U], the kcat in data set [1] was found to be 1.28e-05 ± 4.5e-06 s⁻¹.
Consider AUAAAAGCGCCAGAACUACAGAAAUGUAGCUGACGAGGAGGAGGUUUAUCGAAAUUUCGGCGGAUGCCUCCAAA [U30C U54A], for which, in data set [1], the kcat is 0.000514 ± 7.7e-05 s⁻¹. The KM in data set [2] stood at 3790 ± 1100 µM. In addition, the “self-cleavage kobs at 640 uM GlcN6P” value in data set [3] is 8.25e-05 ± 2.1e-05 s⁻¹. Also, in data set [4], the “self-cleavage kobs at 2500 uM GlcN6P” value was 0.000182 ± 5.3e-05 s⁻¹. Besides, in data set [5], the “self-cleavage kobs at 10000 uM GlcN6P” value came to 0.000378 ± 5.6e-05 s⁻¹.
Turning to AUAAAAGCGCCAGAACUACAGAAAUGUAGGUGACGAGGAGGAGGUUUAUCGAAUUUUCUGCGGAUGCCUCCAAA [U30G G59U], the kcat in data set [1] amounted to 1.09e-05 ± 1.8e-06 s⁻¹. Moreover, the “self-cleavage kobs at 40 uM GlcN6P” value in data set [6] was under 1e-05 s⁻¹.
Regarding AUAAAAGCGCCAGAACUACAGAAAUGUAGUUGACGAGGAGGAGGUUUAUCGCAUUUUCGGCGGAUGUCUCCAAA [A52C C67U], the kcat in data set [1] is 1.21e-05 ± 4.7e-06 s⁻¹.
AUAAAAGCGCCAGAACUACAGAAAUGUAGUUGACGAGGAGGAGGGUUAUCGAAUUUUCGGCGGAUGCCUCCAAA [U45G]: the kcat in data set [1] was 0.011 ± 0.0012 s⁻¹. In addition, the Michaelis constant (KM) in data set [2] was determined as 2240 ± 300 µM. Also, in data set [6], the “self-cleavage kobs at 40 uM GlcN6P” value came to 0.000203 ± 3.8e-06 s⁻¹. The “self-cleavage kobs at 160 uM GlcN6P” value in data set [7] stood at 0.000679 ± 2.9e-05 s⁻¹. The “self-cleavage kobs at 640 uM GlcN6P” value in data set [3] came out at 0.00227 ± 5.8e-05 s⁻¹. In addition, the “self-cleavage kobs at 2500 uM GlcN6P” value in data set [4] came out at 0.00566 ± 0.00017 s⁻¹. Also, in data set [5], the “self-cleavage kobs at 10000 uM GlcN6P” value was 0.00968 ± 0.00036 s⁻¹.
Regarding AUAAAAGCGCCAGACCUACAGAAAUGUAGUUGACGAGGAGGAGGUUUAUCGAAUUUUCGGCGGAUGCGUCCAAA [A15C C68G], the kcat in data set [1] came out at 2.69e-05 ± 6.5e-06 s⁻¹. In addition, the “self-cleavage kobs at 2500 uM GlcN6P” value in data set [4] is 3.22e-05 ± 9e-06 s⁻¹.
AUAAAAGCGCUAGAAAUACAGAAAUGUAGUUGACGAGGAGGAGGUUUAUCGAAUUUUCGGCGGAUGCCUCCAAA [C11U C16A]: in data set [1], the kcat came to 0.000174 ± 7e-06 s⁻¹. Besides, the KM in data set [2] was found to be 1760 ± 190 µM. Besides, the “self-cleavage kobs at 640 uM GlcN6P” value in data set [3] was 4.38e-05 ± 1.9e-05 s⁻¹. For the same variant, in data set [4], the “self-cleavage kobs at 2500 uM GlcN6P” value was 0.000106 ± 2.2e-05 s⁻¹. Moreover, the “self-cleavage kobs at 10000 uM GlcN6P” value in data set [5] was found to be 0.000145 ± 2.9e-05 s⁻¹.
As to AUAAAAGCGCCAGAACUACAGAAAUGUACUUGACGAGGAGGAGGUUUAUCGAAUUGUCGGCGGAUGCCUCCAAA [G29C U56G], the kcat in data set [1] stood at 0.00345 ± 0.0011 s⁻¹. Further, the KM in data set [2] turned out to be 6770 ± 2600 µM. For the same variant, the “self-cleavage kobs at 160 uM GlcN6P” value in data set [7] was determined as 7.08e-05 ± 1.4e-05 s⁻¹. In data set [3], the “self-cleavage kobs at 640 uM GlcN6P” value is 0.000321 ± 6e-05 s⁻¹. Moreover, the “self-cleavage kobs at 2500 uM GlcN6P” value in data set [4] was 0.00115 ± 0.00022 s⁻¹. Also, the “self-cleavage kobs at 10000 uM GlcN6P” value in data set [5] was 0.00181 ± 0.00049 s⁻¹.
On to AUAAAAGCGCCAGAACUACAGAAAUGUAGUUGACGAGGAGGAGGUUUAUCGUUUUUUCGGCGGAUGCCUCCAAA [A52U A53U], for which the kcat in data set [1] is 0.000212 ± 8.7e-06 s⁻¹. For the same variant, the KM in data set [2] worked out at 4210 ± 360 µM. Moreover, the “self-cleavage kobs at 40 uM GlcN6P” value in data set [6] was under 1e-05 s⁻¹. Moreover, the “self-cleavage kobs at 640 uM GlcN6P” value in data set [3] was 2.65e-05 ± 1e-05 s⁻¹. The “self-cleavage kobs at 2500 uM GlcN6P” value in data set [4] is 8.03e-05 ± 1.2e-05 s⁻¹. Further, the “self-cleavage kobs at 10000 uM GlcN6P” value in data set [5] is 0.000148 ± 1.7e-05 s⁻¹.
For the variant AUAAAAGCGCCAGAACUACAGAAAUGUAGUUGACGAGGAGGAGGUUUAUGGAAUUUUCGGCGGAUGCCUCCAAA [C50G], the kcat in data set [1] amounted to 0.000456 ± 6.7e-05 s⁻¹. Further, the KM in data set [2] worked out at 90.7 ± 38 µM. In addition, in data set [6], the “self-cleavage kobs at 40 uM GlcN6P” value was found to be 0.000121 ± 1.5e-05 s⁻¹. For the same variant, in data set [7], the “self-cleavage kobs at 160 uM GlcN6P” value is 0.000444 ± 4.8e-05 s⁻¹. The “self-cleavage kobs at 640 uM GlcN6P” value in data set [3] was determined as 0.000443 ± 4.5e-05 s⁻¹. For the same variant, the “self-cleavage kobs at 2500 uM GlcN6P” value in data set [4] worked out at 0.000399 ± 4e-05 s⁻¹. Moreover, the “self-cleavage kobs at 10000 uM GlcN6P” value in data set [5] is 0.000408 ± 5.8e-05 s⁻¹.
Take AUAAAAGCGCCAGAACUACAGAAAUGUAGUUGACGAGGAGGAGGUUUAUCGAAUUUUCGGCGGAUGCCUAGAAA [C70A C71G]: in data set [1], the kcat was determined as 5.62e-05 ± 4.3e-06 s⁻¹. Besides, in data set [7], the “self-cleavage kobs at 160 uM GlcN6P” value amounted to 3.29e-05 ± 1.1e-05 s⁻¹. For the same variant, in data set [3], the “self-cleavage kobs at 640 uM GlcN6P” value was 5.81e-05 ± 7.8e-06 s⁻¹. The “self-cleavage kobs at 2500 uM GlcN6P” value in data set [4] is 5.08e-05 ± 7.8e-06 s⁻¹. For the same variant, in data set [5], the “self-cleavage kobs at 10000 uM GlcN6P” value was found to be 5.37e-05 ± 7.8e-06 s⁻¹.
With AUAAAAGCGCCAGAACUACAGAAAUGUAGUUGACGAGGAGGAGGUUUAUCGAAUUUUCGGCGGAGGCCUACAAA [U65G C70A], in data set [1], the kcat worked out at 0.000185 ± 1.6e-05 s⁻¹. Further, the KM in data set [2] turned out to be 825 ± 210 µM. In addition, in data set [3], the “self-cleavage kobs at 640 uM GlcN6P” value stood at 7.93e-05 ± 1.6e-05 s⁻¹. Also, in data set [4], the “self-cleavage kobs at 2500 uM GlcN6P” value stood at 0.000183 ± 6.7e-05 s⁻¹. Moreover, the “self-cleavage kobs at 10000 uM GlcN6P” value in data set [5] is 0.000167 ± 2.7e-05 s⁻¹.
AUAAAAGCGCCAGAACUACAGAAAUGUAGUUGACGAGGAGGAGGUUUAUCGAAAUGUCGGCGGAUGCCUCCAAA [U54A U56G]: the kcat in data set [1] came out at 0.0107 ± 0.0029 s⁻¹. For the same variant, the KM in data set [2] was 1740 ± 650 µM. In data set [6], the “self-cleavage kobs at 40 uM GlcN6P” value amounted to 0.000226 ± 4.9e-05 s⁻¹. Besides, the “self-cleavage kobs at 160 uM GlcN6P” value in data set [7] amounted to 0.000857 ± 0.00017 s⁻¹. Moreover, the “self-cleavage kobs at 640 uM GlcN6P” value in data set [3] is 0.00363 ± 0.00057 s⁻¹. In addition, the “self-cleavage kobs at 2500 uM GlcN6P” value in data set [4] amounted to 0.00548 ± 0.00089 s⁻¹. Further, the “self-cleavage kobs at 10000 uM GlcN6P” value in data set [5] turned out to be 0.0131 ± 0.0038 s⁻¹.
Turning to AUAAAAGCGCCAGAACUACAGAAAUGUAGUUGACGAGGAGGAGGUUUAUAGAAUUUUCGGCGGAUGCUUCCAAA [C50A C68U], in data set [1], the kcat was 1.77e-05 ± 3.7e-06 s⁻¹.
As to AUAAAAGCGCCAGAAGUACAGAAAUGUAGUUGACGAGGAGGAGGGUUAUCGAAUUUUCGGCGGAUGCCUCCAAA [C16G U45G], the turnover number (kcat) in data set [1] came out at 0.000908 ± 7.3e-05 s⁻¹. For the same variant, the KM in data set [2] came to 2510 ± 380 µM. In data set [7], the “self-cleavage kobs at 160 uM GlcN6P” value was 4.29e-05 ± 1.9e-05 s⁻¹. The “self-cleavage kobs at 640 uM GlcN6P” value in data set [3] worked out at 0.000199 ± 3.8e-05 s⁻¹. For the same variant, the “self-cleavage kobs at 2500 uM GlcN6P” value in data set [4] was found to be 0.000466 ± 0.00011 s⁻¹. The “self-cleavage kobs at 10000 uM GlcN6P” value in data set [5] was 0.000718 ± 9.7e-05 s⁻¹.
Consider AUAAAAGCGCCAGAACUACAGAAAUGUAGUUGACGAGGAGGAGGUCUAUCGAAUGUUCGGCGGAUGCCUCCAAA [U46C U55G], for which the kcat in data set [1] is 0.00362 ± 0.00063 s⁻¹. In addition, the KM in data set [2] is 1790 ± 450 µM. The “self-cleavage kobs at 40 uM GlcN6P” value in data set [6] turned out to be 8.17e-05 ± 2.1e-05 s⁻¹. Moreover, in data set [7], the “self-cleavage kobs at 160 uM GlcN6P” value was found to be 0.000255 ± 5.8e-05 s⁻¹. Further, in data set [3], the “self-cleavage kobs at 640 uM GlcN6P” value amounted to 0.00107 ± 0.00023 s⁻¹. In addition, in data set [4], the “self-cleavage kobs at 2500 uM GlcN6P” value turned out to be 0.00259 ± 0.00049 s⁻¹. Also, the “self-cleavage kobs at 10000 uM GlcN6P” value in data set [5] was 0.00271 ± 0.00058 s⁻¹.

What is called kcat is the number of substrate molecules converted per active site and unit of time at saturation. By KM is commonly meant the substrate concentration at which the rate is half of its maximum.
